Data published in the domain aggregation screens of Martell et al. (2025).

Assay: soluble fraction after stress (log2 fold change); higher = more stays soluble; pooled small domains, quantitative proteomics
Conditions: stress: 50 degC
Method in brief: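 Quantitative proteomics served as the high-throughput read-out for pooled custom libraries of small protein domains. Each was stressed at 50°C. Aggregation propensity is expressed as the base-two log fold change in soluble protein after stress. A higher value means a larger share of the protein remains in solution.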

| Sequence | soluble fraction (log2) |
| --- | --- |
| HMFTYDLSERELTIIELVAKGLNNKELADTLFLSEGTIRNYLSTLLNKLDLRDRTQLAIFYYQHL | -2.62 |
| HMKTTKRERARAKLIQLLENEDRPAKEIYAGLGDIGVGSRTVEKVKKELQVTTYRSGGSWYWSLPKP | -0.169 |
| HMLQGKVSFFNDEKGYGFIKDNNSKDSYFVHINKVEGEIAEGDKVTFELEKGPKGLVAANVKR | 0.184 |
| HMISENFVEAKILLTEDNRPKSLEILKDIIRQHDKVYSPLSLFLILDEDLEENKEIILEYFDLVLS | -0.185 |
| HMGQEEKDIFLKLINISGIGPKLALNILSGIEASELEEAVRNTNVTRLSMVPGIGQKTALRIIMELSDKLE | -0.432 |
| HMDETYRRQLEDLAREHGAEYLHGILREVDPASAEAIHANNIKRVIRALEFYHLSGKKISEHNETERQ | 0.158 |
| HMDKATMRWEQIEKFLETHPYIMNADVRALFNVSAATANRILATLTTEGKLVKYREGGHWAYKY | -0.544 |
| HMENFSTLFSRLKEERGLSNKQISSFTGAPIKEVKKWESGMGIPTEKRIVAALEGILGSEISKAI | -0.0124 |
| HMTLSHAINRLRLNANMSQEQFAGLFHVSQQSVQKWESGDSVPELSKLIAIAKHFGISLDALILGN | -0.614 |
| HMKRQATLQIGSKRFGMDDLYFKFTVPFEDSEKLGTATIEAYNLSPATRNSIKKGMPIILNAGYEGDI | -0.225 |
| HMPKKLIWERTTSKLQLYITQDRYELKTPLMTIPFTSKSKMMVYLQQRYHLDMQEYRQIYDAG | -2.21 |
| HMSIESMVGRFGVVTKDVVANEMAGKVKVGREEFRATADIAVSSGTKVKVTHAEGITLTVVPE | 0.378 |
| HMTKYVEGQKYVFEFRDGTITIGTYLRTGEGNIYIKDLSGEDIYIPKIMIAQIHLATDDNVKGDEFWF | -0.353 |
| HMVSRKIENPYWANKEKQHIIAEFFYPDTNKRVTASIMNDGSNRDYEEILRGYSIEQIDANTNRRLEER | 0.436 |
| HMNPDDEMLLTYLTKLLVDKQFIVNSNDIFEYILRRVDRTYDGIYDIVSKLDVLSLEKKRQLTIPLIKEI | 0.0226 |
| HMTSEPFYNPRRPQPYWTSETDRHTTYADAVRALAREFSETPEWVESNMGETNDLQEIRRNLSRVKSG | 0.144 |
| HMRPRQDRSEETRDRILDAVVELIAERGLAGVSHRAVADRAGVSLSATSYYFGSKAELERAALEEHYRR | -0.709 |
| HMQYPSSLDSRAKQSLYDNLERNEILALALDNVIQSNKLDGWRDGGIKERKLRLAINNLLKNDEHTDNIME | -0.0155 |
| HMDAMGAVGIARAFISAGERGGDISDGLEHMHGKLLRLSSLMYTRSGKKMAARRHELLSSFVQALEEEIK | -0.174 |
| HMVFKSAQEGLDFYSKQLNDVDATLGRIRRGEESGNGLYGSNRVKNLEEQRKKLDSFVTAYRNAVNAT | 0.08 |
| HMFERISELLTDEELAVYKRGRNANASSVPKHADIADYRRATGVEALFGYLYIKGEIDRINQLFELA | -0.23 |
| HMSEEKLVFSIPDDIETMRIDKAIALETHLSRAQIAELFKENKILLNSKNSKRSEKVKPGDKISLEFIPKI | -0.00517 |
| HMLETIDIFKVTGGEPFLSKDFLEILDLAIEKDLAKNITLMITTNASKFVKKILDKFIHFKRVEFTVS | 0.0202 |
| HMAIVNVEVPSLVGKTEQEARNLLTEAGLKVNVVNDEDESKNDGVVLRQSKDAGTEVQEGTTITITVNKVS | -0.218 |
| HMLDVFSAEQVADVLSVSKRNLETWANNGKLIPDFIHGEVALYSKKQLEQFEQFQRFFNSSWDAERLIQP | -0.947 |
| HMSEPTLESLRAEGAHHYDPARFHYLEVLARRMPGQHAAVQQVLASRLREAVAAYAGRRSLI | -0.126 |
| HMNVYEVKFGDTLDEIIKTYLFDIPVKKSILRQAVILANPHAFRRNNPHWMYSDRQLKLPELQDIRRAIF | -0.276 |
| HMTINPFSTLAVRELEILHYLLNGHRTKEIATNLGLKMNTVSTIKSNIFEKVKADSFTHLLQLAHVHQIS | -0.888 |

| Sequence | soluble fraction (log2) |
| --- | --- |
| HMVEYFDDENLDAFIGRESDSYTEKEIEQFREILYTMNQKEVADWNRSLTIRGINIPNDLKDEMIMMI | -0.438 |
| HMDRNEFVSTLRAALTGAVSPAIVEDNVRYYQNYISQEIASGKSEKEVLDGLGDPRLIARTIIDT | 0.0674 |
| HMDPNFKYIIRIANSDVSGEQKLAYALTSIRGIGERTSNAIIQKLGLDSTQLAGKLTDKNVEDIESA | -0.027 |
| HMERMTSTEILTRDFLTTNSKIVKKSTIEELSEIIHVSPATIIRTVKKMGYSGFSEYKNELINQ | -0.06 |
| HMVWTAGEVVERIRERVGHPATIRELMQVLTIPPEDRHRFRRRIMQLVEAGELIRIRGNRYGLAD | -2.3 |
| HMDWVAYGAELRRRRLLAGWTVAELSRRINLSGMTIHQIEKGRGRLRPSELTLAKLAAALGMPTP | -3.47 |
| HMENIIFDIGFHKGEDTLFYLLKGYRVIAVDADPDLINEWQNIFKKYIENGKLLLLNYVISDT | -1.33 |
| HMNASITVPDVRNLTVKQASEQLLASGFTPIPYAATKDGVGNDIVYAQDPPPSVLARSGDQITITYNPA | 0.0329 |
| HMSNIVNYEVYVYQNDAWDLLARYPSEKRAEAIEYAKSTEFSLNRPTKVIRETYDLDTQKFQEALIYLSE | -0.239 |
| HMAERVWASLLEIKNAVAIEDAKTLEDVDNSEKIAEERIAALNDDAKHPLAIAFIGKLRQDIAEKKIELA | 0.379 |
| HMDINMELGKNIRRLRKLNNLTQQSLANQMNRSKTLIALWEKGERDPSSIDLKRLSEIFNVRADDIIG | -0.689 |
| HMDGLPYPEAAEEPIAQVARNLGMDATRVSIALQEAKLIFRNLDETLAEIAANNGTTPQVVYDAIRHLEPP | -0.095 |
| HMIQMRVKVPKNIAGGSLMGAHHFVKSALARTNPGGSTSNYKIQATDGTPLTLGDLTARQYDEVLIISG | 0.0101 |
| HMGEPTLTIRVVSYNPQSGEMVVVARDPLSGRYALATLNVRTGAGQMIGPQGELLPIENFALGS | -0.985 |
| HMNAIYKFVLGMIGKRSGVVTTLPSKKQVEFQANMLAEKFMQNGIDPNALKSPEQVKNVLANIDQ | -0.737 |
| HMGLPLETVVTHATKLEIVRDGRVSGSIGLSAGVKVDVIALEGDNLQVRYRSLSGRVPVAHTGLAALA | 0.105 |
| HMYEGNEFSSTGMFREDILAITAVHPMREDAVTELLARSNESEETLEMMIDEELLRRVAYGNHNYYMRRFR | -0.428 |
| HMEMTSREIIKRLEEDGWYHVKTTGDHYQMKHPTKPGKVTIVHPAKDLSIGTLRSIEKQSGVRL | -0.0157 |
| HMSILPGVYRHYKGNHYQVFYLAKHSETLEDMVVYQALYGERGIWVRPASMWNETVDDQGKQVKRFTYI | -0.24 |
| HMLDGFEVGMTVMRKPGTETGFTGWPPFADKDEFPVIERIDTSDSTLLLRFNDTSWWINASLVEPSDV | -1.33 |
| HMEAEVIKTASDMADRNGLHNVSLKAIAENLGIRTPSLYNHIGSLDELLREIAHSGMRTMNE | 0.02 |
| HMESVDRIYERVRRYADDVGTAKIPMKELDDDGPLGTAVSRIRERRKRGELTEEWEARFETLPGWTWAA | 0.0038 |
| HMSGKGEFDQLLRSGEYVQAFQRANANGNVTLRRQQLLNLARHQAASGVGSGAIESLSTIQRI | 0.0926 |
| HMISEAEGTILQLLKEADGTLPFTYKSDADEIKKVFGMSKKNFKRTLTELIEAKKIQLLDDAIVL | -0.459 |
| HMDNLKELDEILETYGKKKGYLITILQKAQDAYGYISIDIMNRISEFTGIKVAKIYGVATFYAQFRL | 0.146 |
| HMNEPITIALREAEEAANKILNEGVHSVELSPQNGYVRRLQHELIARYGLTSASRGSDPSRRVSVGAN | -0.212 |
| HMIKRETNDNPVDPASLSLGDRVKILTLNQNGEIISLPDEKGLLQVQVGIMKIGVNVSDIMLI | -0.0513 |
